In the assay the target is human VISTA, native (on anti-CD3-activated human T cells and PBMCs) (human (homo sapiens)).

Consider one substance from US11649285B2.

For control recombinant human IgG1 Fc, the division of CFSE-labeled human CD3+ T cells with plate-bound anti-CD3 and control rhIgG1Fc, flow cytometry (% CD3+ T cells dividing (72 hours)) was above 40.
